Data taken from PMC10330345 (Journal of immunology (Baltimore, Md. : 1950), 2023).

Biological target: the molecule itself
Test: SEC

B1: BTN2A1 (309–527) wild type (domain or fragment, human, UniProt Q7KYR7 309-527, looked up)
chain: QVKEKLQEELRWRRTFLHAVDVVLDPDTAHPDLFLSEDRRSVRRCPFRHLGESVPDNPERFDSQPCVLGRESFASGKHYWEVEVENVIEWTVGVCRDSVERKGEVLLIPQNGFWTLEMHKGQYRAVSSPDRILPLKESLCRVGVFLDYEAGDVSFYNMRDRSHIYTCPRSAFSVPVRPFFRLGCEDSPIFICPALTGANGVTVPEEGLTLHRVGTHQSL
  stoichiometry N: 2

B2: BTN2A1 (271–527) wild type (domain or fragment, human, UniProt Q7KYR7 271-527, looked up)
chain: KLQKEKKILSGEKEFERETREIALKELEKERVQKEEELQVKEKLQEELRWRRTFLHAVDVVLDPDTAHPDLFLSEDRRSVRRCPFRHLGESVPDNPERFDSQPCVLGRESFASGKHYWEVEVENVIEWTVGVCRDSVERKGEVLLIPQNGFWTLEMHKGQYRAVSSPDRILPLKESLCRVGVFLDYEAGDVSFYNMRDRSHIYTCPRSAFSVPVRPFFRLGCEDSPIFICPALTGANGVTVPEEGLTLHRVGTHQSL
  stoichiometry N: 2

B3: BTN2A1 (271–527) L318GW320A (domain or fragment, human, UniProt Q7KYR7 271-527, looked up)
chain: KLQKEKKILSGEKEFERETREIALKELEKERVQKEEELQVKEKLQEEGRARRTFLHAVDVVLDPDTAHPDLFLSEDRRSVRRCPFRHLGESVPDNPERFDSQPCVLGRESFASGKHYWEVEVENVIEWTVGVCRDSVERKGEVLLIPQNGFWTLEMHKGQYRAVSSPDRILPLKESLCRVGVFLDYEAGDVSFYNMRDRSHIYTCPRSAFSVPVRPFFRLGCEDSPIFICPALTGANGVTVPEEGLTLHRVGTHQSL
  stoichiometry N: 2

B4: BTN2A1 (271–527) L318G (domain or fragment, human, UniProt Q7KYR7 271-527, looked up)
chain: KLQKEKKILSGEKEFERETREIALKELEKERVQKEEELQVKEKLQEEGRWRRTFLHAVDVVLDPDTAHPDLFLSEDRRSVRRCPFRHLGESVPDNPERFDSQPCVLGRESFASGKHYWEVEVENVIEWTVGVCRDSVERKGEVLLIPQNGFWTLEMHKGQYRAVSSPDRILPLKESLCRVGVFLDYEAGDVSFYNMRDRSHIYTCPRSAFSVPVRPFFRLGCEDSPIFICPALTGANGVTVPEEGLTLHRVGTHQSL
  stoichiometry N: 2

B5: BTN2A1 (271–527) W320A (domain or fragment, human, UniProt Q7KYR7 271-527, looked up)
chain: KLQKEKKILSGEKEFERETREIALKELEKERVQKEEELQVKEKLQEELRARRTFLHAVDVVLDPDTAHPDLFLSEDRRSVRRCPFRHLGESVPDNPERFDSQPCVLGRESFASGKHYWEVEVENVIEWTVGVCRDSVERKGEVLLIPQNGFWTLEMHKGQYRAVSSPDRILPLKESLCRVGVFLDYEAGDVSFYNMRDRSHIYTCPRSAFSVPVRPFFRLGCEDSPIFICPALTGANGVTVPEEGLTLHRVGTHQSL
  stoichiometry N: 2
